Test results as given in publication doi:10.1101/2020.02.21.959445.

T1: ME47/AA (designed (human Max/human E47), R12A;C29A)
T1 chain: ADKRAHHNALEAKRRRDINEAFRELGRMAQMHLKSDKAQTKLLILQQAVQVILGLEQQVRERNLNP

T2: MEF (designed (human Max/human E47/FosW))
T2 chain: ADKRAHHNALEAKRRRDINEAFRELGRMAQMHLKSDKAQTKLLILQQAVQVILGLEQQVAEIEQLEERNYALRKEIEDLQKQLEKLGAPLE

T3: MEF-1 (designed (human Max/human E47/FosW))
T3 chain: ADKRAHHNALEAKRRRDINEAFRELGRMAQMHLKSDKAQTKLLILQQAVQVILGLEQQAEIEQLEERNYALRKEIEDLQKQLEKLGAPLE

T4: MEF/LA (designed (human Max/human E47/FosW), four FosW heptad Leu to Ala (see sequence))
T4 chain: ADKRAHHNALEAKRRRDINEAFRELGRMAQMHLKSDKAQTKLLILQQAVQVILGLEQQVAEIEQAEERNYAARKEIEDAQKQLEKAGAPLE

T5: MEF+1 (designed (human Max/human E47/FosW))
T5 chain: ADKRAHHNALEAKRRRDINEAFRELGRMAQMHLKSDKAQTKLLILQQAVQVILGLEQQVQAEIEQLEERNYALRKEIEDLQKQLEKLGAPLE

B1: AT E-box (-7 AT E-box) (dsDNA)
DNA 1: GCGGCCGCTGCAGGAACCACGTGGTGGAATTCTTTACA
DNA 2: TGTAAAGAATTCCACCACGTGGTTCCTGCAGCGGCCGC
B2: E-box (-7 GC E-box) (dsDNA)
DNA 1: GCGGCCGCTGCAGGAGCCACGTGCGGGAATTCTTTACA
DNA 2: TGTAAAGAATTCCCGCACGTGGCTCCTGCAGCGGCCGC
B3: NS DNA (nonspecific; TCCAAG in place of CACGTG) (dsDNA)
DNA 1: TGCAGGAGTTCCAAGGCGAAGGTT
DNA 2: AACCTTCGCCTTGGAACTCCTGCA

What was measured:
Experiment in all cases: EMSA
ME47/AA = target: T1, ME47/AA
MEF = target: T2, MEF
MEF-1 = target: T3, MEF-1
MEF/LA = target: T4, MEF/LA
MEF+1 = target: T5, MEF+1

Binder | Kd (ME47/AA) | Kd (MEF) | Kd (MEF-1) | Kd (MEF/LA) | Kd (MEF+1)
B1 | 28.5 ± 2.3 nM |  |  |  | 
B2 | 27.7 ± 1.7 nM | 7.8 ± 0.6 nM | 59 ± 5 nM | 10.7 ± 1.5 nM | 30 ± 4 nM
B3 | 87.5 ± 5.1 nM | 96 ± 22 nM | 111 ± 18 nM | 44.5 ± 6 nM | 65 ± 7 nM
